Source: patent US20200325187A1 (Genentech, published 2020)

T1: hVEGF-A (8-109) (human, UniProt P15692 214-315)
T1 sequence (looked up): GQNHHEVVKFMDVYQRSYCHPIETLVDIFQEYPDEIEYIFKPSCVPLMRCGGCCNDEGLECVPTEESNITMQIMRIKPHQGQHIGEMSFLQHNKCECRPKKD


Target: T1, hVEGF-A (8-109)
Assay: spot phage ELISA

Binder	binding result
GCNIMLPFWGCGRDFECLAGCVCQYYQSCGGS (designed binder) [9.54.90-2x63]	binds
GCNIMLPFWGCGRDFECLAGCVCQYYQSCGVH (designed binder) [9.54.90-2x90]	binds
GCNIMLPFWGCGRDFECLAGCVCQYYQSCGIA (designed binder) [9.54.90-2x2]	binds
GCNIMLPFWGCGRDFECLAGCVCQYYQSCGTR (designed binder) [9.54.90-2x36]	binds
GCNIMLPFWGCGRDFECLAGCVCQYYQSCGLS (designed binder) [9.54.90-2x42]	binds
GCNIMLPFWGCGRDFECLAGCVCQYYQSCGFH (designed binder) [9.54.90-2x28]	binds
GCNIMLPFWGCKQDSDCLAGCVCQYYQSCGSE (designed binder) [9.54-4]	binds
GCNIMLPFWGCKQDSDCLVGCICQYYQSCGSI (designed binder) [9.54-10]	binds
GCNIMLPFWGCKQDFDCLAGCICQYYQSCGGE (designed binder) [9.54-39]	binds
GCNIMLPFWGCKQDSDCLAGCVCQYYQSCGDG (designed binder) [9.54-43]	binds
GCNIMLPFWGCKQDFDCLAGCVCQYYQSCGQY (designed binder) [9.54-6]	binds
GCNIMLPFWGCKQDFDCLAGCVCQYYQSCGLE (designed binder) [9.54-5]	binds
GCNIMLPFWGCKQDSDCLAGCICQYYQSCGQN (designed binder) [9.54-12]	binds
GCNIMLPFWGCKQDFDCLAGCVCQYYQSCGDT (designed binder) [9.54-34]	binds
GCNIMLPFWGCKQDSDCLAGCVCQYYQSCGMD (designed binder) [9.54-2]	binds
GCNIMLPFWGCKQDSDCLAGCVCQYYQSCGTN (designed binder) [9.54-42]	binds
GCNIMLPFWGCKQDSDCLAGCVCQYYQSCGEE (designed binder) [9.54-17]	binds
GCNIMLPFWGCKQDSDCLAGCVCQYYQSCGPH (designed binder) [9.54-27]	binds
GCNIMLPFWGCKQDSDCLAGCVCQYYQSCGEN (designed binder) [9.54-24]	binds
GCNIMLPFWGCKQDSDCLAGCVCQYYQSCGTD (designed binder) [9.54-1]	binds

Binder	binding result
GCNIMLPFWGCKQDSDCLAGCVCQYYQSCGPE (designed binder) [9.54-15]	binds
GCNIMLPFWGCKQDFDCLAGCVCQYYQSCGQH (designed binder) [9.54-9]	binds
GCNIMLPFWGCKQDSDCLAGCVCQYYQSCGSD (designed binder) [9.54-21]	binds
GCNIMLPFWGCKQDSDCLAGCVCQYYQSCGDD (designed binder) [9.54-19]	binds
GCNIMLPFWGCKQDFDCLAGCVCQYYQSCGGR (designed binder) [9.54-32]	binds
GCNIMLPFWGCKQDFDCLAGCVCQYYQSCGRP (designed binder) [9.54-13]	binds
GCDVMQPYWGCEMDFDCLAGCVCHWYNSCGSL (designed binder) [9.63-36]	binds
GCDVMQPYWGCKQDSDCLAGCVCHWYNSCGEN (designed binder) [9.63-62]	binds
GCDVMQPYWGCKQDSDCLAGCICHWYNSCGTD (designed binder) [9.63-19]	binds
GCDVMQPYWGCEMDFDCLAGCVCHWYNSCGYM (designed binder) [9.63.44-54]	binds
GCDVMQPYWGCEMDFDCLAGCVCHWYNSCGND (designed binder) [9.63-77]	binds
GCDVMQPYWGCEMDFDCLAGCVCHWYNSCGVE (designed binder) [9.63-68]	binds
GCDVMQPYWGCEMDFDCLAGCVCHWYNSCGNS (designed binder) [9.63.44-80]	binds
GCDVMQPYWGCEMDFDCLAGCVCHWYNSCGTP (designed binder) [9.63.44-44]	binds
GCDVMQPYWGCEMDFDCLAGCVCHWYNSCGGQ (designed binder) [9.63.44-19]	binds
GCDVMQPYWGCEMDFDCLAGCVCHWYNSCGRY (designed binder) [9.63.44-82]	binds
GCDVMQPYWGCEIDFDCLAGCVCHWYNSCGQV (designed binder) [9.63.44-55]	binds
GCDVMQPYWGCKQDFDCLAGCVCHWYNSCGPS (designed binder) [9.63-1]	binds
GCDVMQPYWGCEMDFDCLAGCVCHWYNSCGRL (designed binder) [9.63-21]	binds
GCDVMQPYWGCEMDFDCLAGCVCHWYNSCGEK (designed binder) [9.63-17]	binds

Binder	binding result
GCDVMQPYWGCKQDFDCLAGCICHWYNSCGYL (designed binder) [9.63-10]	binds
GCDVMQPYWGCEMDFDCLAGCVCHWYNSCGVN (designed binder) [9.63.44-14 (SEQ ID NO: 514)]	binds
GCDVMQPYWGCEMDFDCLAGCVCHWYNSCGST (designed binder) [9.63.44-41]	binds
GCDVMQPYWGCEMDFDCLAGCICHWYNSCGPE (designed binder) [9.63-66]	binds
GCDVMQPYWGCEMDFDCLAGCVCHWYNSCGFN (designed binder) [9.63.44-73]	binds
GCDVMQPYWGCEMDFDCLAGCVCHWYNSCGWD (designed binder) [9.63-40]	binds
GCDVMQPYWGCEMDFDCLAGCVCHWYNSCGNN (designed binder) [9.63-65]	binds
GCDVMQPYWGCEMDFDCLAGCVCHWYNSCGDL (designed binder) [9.63-16]	binds
GCDVMQPYWGCEMDFDCLAGCICHWYNSCGRT (designed binder) [9.63.44-2-A]	binds
GCDVMQPYWGCEMDFDCLAGCICHWYNSCGPT (designed binder) [9.63-30]	binds
GCDVMQPYWGCEMDFDCLAGCICHWYNSCGAS (designed binder) [9.63-23]	binds
GCDVMQPYWGCEMDFDCLAGCICHWYNSCGTR (designed binder) [9.63-61]	binds
GCDVMQPYWGCEMDFDCLAGCVCHWYNSCGEP (designed binder) [9.63.44-16]	binds
GCDVMQPYWGCEMDFDCLAGCVCHWYNSCGSM (designed binder) [9.63-45]	binds
GCDVMQPYWGCEMDFDCLAGCVCHWYNSCGGK (designed binder) [9.63-7]	binds
GCDVMQPYWGCEMDFDCLAGCICHWYNSCGRP (designed binder) [9.63-74]	binds
GCDVMQPYWGCEMDFDCLAGCICHWYNSCGDE (designed binder) [9.63-93]	binds
GCNIMLPFWGCGRDFECLAGCVCQYYQSCGPLQ (designed binder) [9.54.90-3x49]	binds
GCNIMLPFWGCGRDFECLAGCVCQYYQSCGNYQ (designed binder) [9.54.90-3X50]	binds
